Experiment [1] addresses T1, human IGF2^1-67 (mature insulin-like growth factor 2) (human, UniProt P01344 25-91, biotinylated (site not stated) where immobilised on the chip (Tables 1-4)).
T1 construct: mature; also called mature IGF2; biotinylated IGF2
The experiment can be described thus: SPR kinetic, biotin-IGF2 on chip, pH 7.4. In a few lines:
(§1)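 Biacore SPR at 25 °C in HBS-EP pH 7.4 or MES-EP pH 6.5, flow 40 μL/min; ~50 RU biotin-IGF2:biotin-ubiquitin (1:8) on streptavidin chip, or Fc-domain 11 captured via anti-human IgG. Kinetics fitted to 1:1 model; steady-state affinity from response averaged 5 s before injection end.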
On the technique in general: SPR reads the build-up and loss of mass on a sensor chip optically.

The target in experiment [2] is T1, human IGF2^1-67 (mature insulin-like …). Kind of experiment: SPR steady state, biotin-IGF2 on chip. The protocol:
(§2) Final kinetic analysis of mutants by SPR was conducted using a Biacore T200 biosensor at 25° C. in either HBS-EP (10 mM HEPES pH 7.4, 150 mM NaCl, 3 mM EDTA, and 0.005% (v/v) surfactant P20) or MES-EP (20 mM MES pH 6.5, 150 mM NaCl, 3 mM EDTA, and 0.005% (v/v) surfactant P20) at a flow-rate of 40 μL min⁻¹. […] For the analysis of the Fc-domain 11^AB5 interaction, approximately 50 RU of a biotinylated IGF2:biotinylated ubiquitin mixture (1:8 proportion) was immobilized on the CM5-streptavidin chip. This interaction was also analysed by immobilizing the Fc-domain 11^AB5 and Fc-domain 11^AB5-RHH (or Fc-domain 11^I1572A as control) by Human Antibody Capture (monoclonal mouse anti-human IgG antibody immobilised on a CM5 chip by amine coupling, GE Healthcare) with and without human IgG1 Fc fragment (Bethyl Laboratories, UK) in the control flow cell. […] T200 BiaEvaluation software (GE Healthcare) was used to fit the resulting curves according to a 1:1 binding model. Steady state affinities were determined using the kinetic data, taking the response average at 5 seconds before injection end and for 5 seconds average. Thermodynamic data was performed across the temperature range of 10° C. to 30° C., van't Hoff and Erying plots generated and ΔH, −TΔS and ΔG values determined as previously described.

Experiment [3] shares this target. The experiment can be described thus: SPR steady state, biotin-IGF2 on chip, pH 7.4. In a few lines: as §1
For experiment [4] the target is unchanged. Kind of experiment: SPR (Biacore T200, 25 °C, HBS-EP pH 7.4); ΔΔG° = RT ln(KD mutant / KD domain 11^AB3); box AB+CD. The method, then:
(§3) Boxes show the change in the binding free energy contribution, ΔΔGº, for the indicated mutants. The loop/s that contains the mutation/s is indicated in each box. The ΔΔGº values were calculated as ΔΔGº=ΔGº domain 11^mutant−ΔGº domain 11^AB3=RTln(KD domain 11^mutant/KD domain 11^AB3). Additive and non-additive contributions of single point mutations are shown when calculated with a box solid line and dashed line, respectively.
(§4) Final kinetic analysis of mutants by SPR was conducted using a Biacore T200 biosensor at 25° C. in either HBS-EP (10 mM HEPES pH 7.4, 150 mM NaCl, 3 mM EDTA, and 0.005% (v/v) surfactant P20) or MES-EP (20 mM MES pH 6.5, 150 mM NaCl, 3 mM EDTA, and 0.005% (v/v) surfactant P20) at a flow-rate of 40 μL min⁻¹. […] This interaction was also analysed by immobilizing the Fc-domain 11^AB5 and Fc-domain 11^AB5-RHH (or Fc-domain 11^I1572A as control) by Human Antibody Capture (monoclonal mouse anti-human IgG antibody immobilised on a CM5 chip by amine coupling, GE Healthcare) with and without human IgG1 Fc fragment (Bethyl Laboratories, UK) in the control flow cell. […] Steady state affinities were determined using the kinetic data, taking the response average at 5 seconds before injection end and for 5 seconds average.

Experiment [5] has the same target. The experiment can be described thus: SPR kinetic, biotin-IGF2 on chip. The protocol: as §2
Experiment [6] has the same target. Kind of experiment: SPR (Biacore T200, 25 °C, HBS-EP pH 7.4); ΔΔG° = RT ln(KD mutant / KD domain 11^AB3); box AB+CD+FG, dashed outline. The method, then: as §3, §4
The target is the same in experiment [7]. Kind of experiment: SPR kinetic, biotin-IGF2 on chip, pH 6.5. The protocol: Measurements were carried out at 25° C. in MES-EP buffer, 20 mM MES pH 6.5, 150 mM NaCl, 3 mM EDTA, and 0.005% (v/v) surfactant P20). Data for KD expressed as mean of each experiment, and means of kon and koff are shown.
as §2

Experiment [8] has the same target. The experiment can be described thus: SPR (Biacore T200, 25 °C, HBS-EP pH 7.4); ΔΔG° = RT ln(KD mutant / KD domain 11^AB3); box AB+CD+FG+FG. The protocol:
as §3, §4

Experiment [9] shares this target. The experiment can be described thus: SPR, biotin-IGF2 on chip, lower pH (6.5); reference domain 11^WT. The method, then:
as §2

For experiment [10] the target is unchanged. Kind of experiment: SPR (Biacore T200, 25 °C, HBS-EP pH 7.4); ΔΔG° = RT ln(KD mutant / KD domain 11^AB3); box AB+FG+FG, solid outline. The protocol:
as §3, §4

Experiment [11] shares this target. Kind of experiment: SPR (Biacore T200, 25 °C, HBS-EP pH 7.4); ΔΔG° = RT ln(KD mutant / KD domain 11^AB3); box AB+CD+FG+FG, dashed outline. The protocol:
as §3, §4

Experiment [12] shares this target. The experiment can be described thus: cell-based or functional assay.
A further experiment concerns the target T2, pro-IGF2^1-156 (UniProt P01344 25-180).
T2 construct: range 1-156
The experiment can be described thus: SPR kinetic, Fc fusion captured by anti-human IgG, pH 7.4. The protocol: (§5) SPR analysis of the interaction of recombinant IGF1 and IGF2 forms with Fc-domain 11 proteins immobilised by antibody capture (CM5 chip containing monoclonal mouse anti-human IgG antibody immobilised by amine coupling). Measurements were carried out at 25° C. in HBS-EP buffer (pH 7.4).
as §2

Another experiment has as its target pro-IGF2^1-104 (UniProt P01344 25-128). The experiment is described as above. The method, then:
as §5, §2

The target of experiment [13] is T1, human IGF2^1-67 (mature insulin-like …). The experiment is described as above. The protocol: as §5, §2

8 molecules from patent US20180237497A1 (CANCER RESEARCH TECHNOLOGY, published 2018) can be followed below.

Substitutions are numbered along the chain they refer to. Numbers in names are those of the source.

T2 sequence (P01344 25-180 limits assumed): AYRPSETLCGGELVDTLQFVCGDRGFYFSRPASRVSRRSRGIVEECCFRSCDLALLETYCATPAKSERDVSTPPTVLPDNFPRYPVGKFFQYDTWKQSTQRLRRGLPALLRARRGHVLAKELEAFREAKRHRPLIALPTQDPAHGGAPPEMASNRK
pro-IGF2^1-104, sequence (P01344 25-128 limits assumed): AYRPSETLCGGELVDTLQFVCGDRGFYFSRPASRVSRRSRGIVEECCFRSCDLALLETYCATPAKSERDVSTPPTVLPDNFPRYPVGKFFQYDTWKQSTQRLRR
T1 sequence (P01344 25-91): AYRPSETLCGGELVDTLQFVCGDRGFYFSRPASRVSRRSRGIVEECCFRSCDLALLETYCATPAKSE

B1: domain 11^AB3 Q1569R (receptor)
chain: MKSNEHDDCQVTNPSTGHLFDLSSLSGRAGFTAAYSKSGVVYMSICGENENCPPGVGACFGRTRISVGKANKRLRYVDQVLQLVYKDGSPCPSKSGLSYKSVISFVCRPEAGPTNRPMLISLDKQTCTLFFSWHTPLACEQATECSV
notes: See m5; also called AB3 + 73E (CD-Q1569R)
By Kd is commonly meant the constant that tells how readily two partners part at equilibrium. By koff is commonly meant a measure of how fast the partners let go of each other. Lower therefore signals a long-lived complex. As a reminder, the kon is the rate constant with which the complex forms. For the molecule B1, the Kd in [1] amounted to 2.3 nM; in experiment [2], 3.15 nM; in experiment [3], 3.15 nM; in experiment [5], 2.3 nM. The koff in [1] and in experiment [5] was 0.031 s⁻¹ in each case. Moreover, the kon in experiment [1] and in experiment [5] was 1.36e+07 M⁻¹ s⁻¹ throughout. In [4], this molecule came in with a ΔΔG of -1.12 kcal/mol.

B2: domain 11^AB5 Q1569R P1597H (receptor)
chain: B1 chain with S36A, S38G, G39W, V40G, P90H
notes: See m5
Consider B2, for which the Kd in experiment [1] stood at 1.95 nM; in experiment [3], 5.4 nM; in experiment [7], 1.46 nM. The koff in experiment [1] turned out to be 0.0058 s⁻¹; in [7] it was 0.0034 s⁻¹. Also, the on-rate (kon) came to 3.2e+06 M⁻¹ s⁻¹ in experiment [1] and 2.37e+06 M⁻¹ s⁻¹ in experiment [7]. Also, the ΔΔG in experiment [6] is -1.22 kcal/mol.

B3: domain 11^AB3 Q1569R P1597H (receptor)
chain: B1 chain with P90H
notes: See m5
In experiment [1], B3 yielded a Kd of 0.9 nM, a koff of 0.0153 s⁻¹ and a kon of 1.89e+07 M⁻¹ s⁻¹. In [6], this molecule had a ΔΔG of -1.68 kcal/mol. The molecule further registered a Kd in experiment [3] of 1.73 nM. In experiment [7], binding was characterised by a dissociation constant (Kd) of 0.47 nM, the koff turned out to be 0.0091 s⁻¹ and the kon was determined as 1.99e+07 M⁻¹ s⁻¹.

B4: domain 11^AB3 Q1569R P1597H S1602H (receptor)
chain: B1 chain with P90H, S95H
notes: See m5
For the molecule B4, the ΔΔG in experiment [8] is -1.79 kcal/mol. In addition, in experiment [1], the affinity, expressed as Kd, was 0.74 nM; the koff was 0.01 s⁻¹; the kon is 1.41e+07 M⁻¹ s⁻¹. Besides, binding in experiment [3] was characterised by a dissociation constant (Kd) of 1.53 nM. For the same molecule, in experiment [9], the “fold improved overall affinity compared to domain 11^WT” value stood at 100 fold. Besides, in experiment [7], the affinity, expressed as Kd, was 0.4 nM; the koff worked out at 0.0064 s⁻¹; the kon was 1.61e+07 M⁻¹ s⁻¹.

B5: domain 11^AB5 P1597H S1602H (receptor)
chain: B1 chain with S36A, S38G, G39W, V40G, R62Q, P90H, S95H
notes: See m5
In [1], B5 yielded a Kd of 1.17 nM, a koff of 0.0046 s⁻¹ and a kon of 3.5e+06 M⁻¹ s⁻¹. Also, the ΔΔG in [10] was -1.52 kcal/mol. Further, binding in [3] was characterised by a dissociation constant (Kd) of 2.93 nM. For the same molecule, in experiment [7], binding was put at a Kd of 0.62 nM, the koff came to 0.0029 s⁻¹ and the kon stood at 5.32e+06 M⁻¹ s⁻¹.

B6: domain 11^AB5 Q1569R P1597H G1603K (receptor)
chain: B1 chain with S36A, S38G, G39W, V40G, P90H, G96K
notes: See m5
B6: in experiment [1], binding was put at a Kd of 0.87 nM, the koff was 0.0058 s⁻¹ and the kon was 6.67e+06 M⁻¹ s⁻¹. Besides, the Kd in experiment [3] amounted to 2.01 nM. This molecule also registered a ΔΔG in experiment [11] of -1.7 kcal/mol. Further, in [7], the Kd amounted to 0.69 nM, the koff came out at 0.0051 s⁻¹ and the kon was 7.54e+06 M⁻¹ s⁻¹.

B7: domain 11^AB5 Q1569R (receptor)
chain: B1 chain with S36A, S38G, G39W, V40G
notes: See m5
Regarding B7, in experiment [1], binding was put at a Kd of 2.24 nM, the koff turned out to be 0.0175 s⁻¹ and the on-rate (kon) came to 8.04e+06 M⁻¹ s⁻¹. The same molecule yielded a Kd in [3] of 3.22 nM. For the same molecule, in [4], the ΔΔG is -1.13 kcal/mol.

B8: human IgG1 Fc-domain 11^AB5 fusion protein (Fc fusion)
chain: NEHDDCQVTNPSTGHLFDLSSLSGRAGFTAAYAKGWGVYMSICGENENCPPGVGACFGQTRISVGKANKRLRYVDQVLQLVYKDGSPCPSKSGLSYKSVISFVCRPEAGPTNRPMLISLDKQTCTLFFSWHTPLACEQAT
notes: Made in HEK293T; also called Fc-domain II^AB5; pHLSec-AB5-hIgG1; not shown: human IgG1 Fc
For the molecule B8, in [12], the “IC50, cell viability of HT29/219 in serum free conditions” value is 1700 nM; the “IC50, cell viability of Hep3B in serum free conditions” value is 35500 nM; the “IC50, cell viability of Huh7 in serum free conditions” value stood at 1200 nM. In the experiment with pro-IGF2^1-156, this molecule came in with a Kd of 0.21 nM, a koff of 0.0009 s⁻¹ and a kon of 4.19e+06 M⁻¹ s⁻¹. In the experiment with pro-IGF2^1-104, the Kd stood at 0.54 nM, the koff worked out at 0.0069 s⁻¹ and the kon was 1.29e+07 M⁻¹ s⁻¹. Also, in experiment [13], the Kd came to 3.89 nM, the koff was 0.025 s⁻¹ and the kon turned out to be 6.47e+06 M⁻¹ s⁻¹.
